Assay results reported in the nanobody polyreactivity screen of Harvey et al. (2022).

Assay: yeast display, Sf9 membrane polyspecificity reagent, FACS + sequencing; frameworks hold sequencing errors
Method in brief: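 Using colony PCR, genes from sorted yeast display clones were amplified, then sequenced on MiSeq at 2 × 250 and filtered by CDR length. The clones had been stained with 10% biotinylated, detergent-solubilized Sf9 membrane reagent for 1 hour at 4 °C and sorted by FACS into low and high (top ~1%) gates on anti-HA and streptavidin fluorescence. Polyreactivity labels come from the gate of origin.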

Sequence: QVQLVESGGGLVQAGGSLRLSCAASGLTLSYYAMGWYRQAPGKERELVATISWRTGSTYYADSVKGRFTISRDNAKNTVYLQMNSLKPEDTAVYYCNARGFQYSYSHLIYYPYDYWGQGTQVTVSS
- polyreactivity (PSR sort gate): high polyreactivity

Sequence: QVQLVESGGGLVQAGGSLRLSCAASGLTLVTYAMGSYRQAPGKERELVAAINSGGSTNYADSVKGRFTISRDNAKNTVYLQMNSLKPEDTAVYYCNADRVSPATYDYWGQGTQVTVSS
- polyreactivity (PSR sort gate): low polyreactivity

Sequence: QVQLVESGGGLVQAGGSLRLSCAASGLTLVTYAMGWYRQAPGNERELVAAINSGGSTNYADSVKGRFTISRDNAKNTVYLQMNSLKPEDTAVYYCNADRVSPATYDYWGQGTQVTVSS
- polyreactivity (PSR sort gate): low polyreactivity

Sequence: QVQLVESGGGLVQAGGSLRLSCAASGLTLYGYTMGWYRQAPGKERELVATITTGGDSTYYADSVKGRFTISRDNAKNTVYLQMNSLKPEDTAVYYCAAYSYGWDYSYDYWGQGTQVTVSS
- polyreactivity (PSR sort gate): low polyreactivity

Sequence: QVQLVESGGGLVQAGGSLRLSCAASGLTLYKNGMGWYRQAPGKERELVAVISRSGGRTYYADSVKGRFTISRDNAKNTVYLQMNSLKPEDTAVYYCAAAWYSSSRYQGIYRFDYWGQGTQVTVSS
- polyreactivity (PSR sort gate): high polyreactivity

Sequence: QVQLVESGGGLVQAGGSLRLSCAASGLTLYRNAMGWYRQAPGKERELVATINFSGGSKYYADSVKGRFTISRDNAKNTVYLQMNSLKPEDTAVYFCNARGYWHYSPTKFDYWGQGTQVTVSS
- polyreactivity (PSR sort gate): low polyreactivity

Sequence: QVQLVESGGGLVQAGGSLRLSCAASGLTLYTYAMGWYRQAPGKERELVAAISKNGGRTYYADSVKGRFTISRDNANNTVYLQMNSLKPEDTAVYYCAARARVGSVTFDYWGQGTQVTVSS
- polyreactivity (PSR sort gate): high polyreactivity

Sequence: QVQLVESGGGLVQAGGSLRLSCAASGLTLYYYAMGWYRQAPGKERELVAAINRGGSTYYSDSVKGRFTISRDNEKNTVYLLMNSLKPEDTAVYYCAVDYGVRDLTYYYCGQGTQVTVSS
- polyreactivity (PSR sort gate): low polyreactivity

Sequence: QVQLVESGGGLVQAGGSLRLSCAASGLTSHSYAMGWYRQAPGKERELVAAINGDGGSTYYADSVKGRFTISRDNAKNTVYLQMNSLKPEDTAVYYCAAQGNRPRGEYDYWGQGTQVTVSS
- polyreactivity (PSR sort gate): high polyreactivity

Sequence: QVQLVESGGGLVQAGGSLRLSCAASGLTSKFYAMGWYRQAPGKERELVAAISGSGGSTYYADSVKGRFTISRDKAKNTVYLQMNSLKPEDTAVYYCAARYFGLRYYYWGQGTQVTVSS
- polyreactivity (PSR sort gate): high polyreactivity

Sequence: QVQLVESGGGLVQAGGSLRLSCAASGLTVKYYAMGWFRQAPGKERELAAIISFGGGSTYYADSVKGRFTISRDNAKNTVYLQMNSLKPEDTAVYYCNARLLFKYGYWGQGTQVTVSS
- polyreactivity (PSR sort gate): high polyreactivity

Sequence: QVQLVESGGGLVQAGGSLRLSCAASGLTVLQNAMGWYRQAPGKEWELVAAINIGTNTYADSVKGRFTSARDNAKNTVYLQMNSLKPEDTAVYYCATVDTVLVRPVGYDYWGQGTQVTVSS
- polyreactivity (PSR sort gate): low polyreactivity

Sequence: QVQLVESGGGLVQAGGSLRLSCAASGLTYADYAMGWYRQAPGKDRQLVAAISRRGGSTYYADSVKGRFTISRDKAKNTVYLQMNSLKPEDTAVYYCAAYAYDVAFKRYKFDYWGQGTLVTVSS
- polyreactivity (PSR sort gate): high polyreactivity

Sequence: QVQLVESGGGLVQAGGSLRLSCAASGMGWYRQAPGKERELVAAITSGDSTNYADSVKGRFTISRDNAKNTVYLQMNSLKPEDTAVYYCAADPDYLYAYYYWGQGSQVTVSS
- polyreactivity (PSR sort gate): low polyreactivity

Sequence: QVQLVESGGGLVQAGGSLRLSCAASGMGWYRQAPGKERELVAAITSGDSTNYADSVKGRFTISRDNAKNTVYLQMNSLKPEDTAVYYCAADPDYLYAYYYWGQGTQVTVSS
- polyreactivity (PSR sort gate): low polyreactivity

Sequence: QVQLVESGGGLVQAGGSLRLSCAASGMGWYRQAPGKERELVATITWSDGITYADSVKGRFTISRDNAKNTVYLQMNSLKPEDTAVYYCNADWDQTGTVFYSFGMREMDSWGQGTQVTVSS
- polyreactivity (PSR sort gate): low polyreactivity

Sequence: QVQLVESGGGLVQAGGSLRLSCAASGMIFQDNAMGWYSQAPGKERELVAAITTGGITYYADSVKGRFTISRDNAKNTVYLQMNSLKPEDTAVYYCATDPVKSGYQRYYYWGQGTQVTVSS
- polyreactivity (PSR sort gate): low polyreactivity

Sequence: QVQLVESGGGLVQAGGSLRLSCAASGMTFFTYSMGWYRQAPGKERELVAAISGSGGSTYYADSVKGRFTISRDNAKNTVYLQMNSLKPEDTAVYYCAKRSWIVYDYWGQGTQVTVSS
- polyreactivity (PSR sort gate): low polyreactivity

Sequence: QVQLVESGGGLVQAGGSLRLSCAASGMVWYRQAPGKERELVAAITSGDSTNYADSVKGRFTISRDNAKNTVYLQMNCLKPEDTSVYYCAADPDYLYAYFYWGQGTQVSVSS
- polyreactivity (PSR sort gate): low polyreactivity

Sequence: QVQLVESGGGLVQAGGSLRLSCAASGNAMGWYRQAPGKERELVAAITYGGTTTYYADSVKGRFTISRDNAKNTVYLQMNSLKPEDTAVYYCAADYVFVATPLRYDYWGQGTQVTVSS
- polyreactivity (PSR sort gate): low polyreactivity

Sequence: QVQLVESGGGLVQAGGSLRLSCAASGNICITYAMGWYRQAPGKEREFVAAISRRRGRTYYADSVKARFTISRDKAKNTVYLQMNSLKPVDTAVYYCAADPATSVYGGLNYWGQVTQVTVSS
- polyreactivity (PSR sort gate): high polyreactivity
